B1: Dynamin-binding protein (Homo sapiens), Q6XZF7-1 (parent)
chain: MEAGSVVRAIFDFCPSVSEELPLFVGDIIEVLAVVDEFWLLGKKEDVTGQFPSSFVEIVTIPSLKEGERLFVCICEFTSQELDNLPLHRGDLVILDGIPTAGWLQGRSCWGARGFFPSSCVRELCLSSQSRQWHSQSALFQIPEYSMGQARALMGLSAQLDEELDFREGDVITIIGVPEPGWFEGELEGRRGIFPEGFVELLGPLRTVDESVSSGNQDDCIVNGEVDTPVGEEEIGPDEDEEEPGTYGVALYRFQALEPNELDFEVGDKIRILATLEDGWLEGSLKGRTGIFPYRFVKLCPDTRVEETMALPQEGSLARIPETSLDCLENTLGVEEQRHETSDHEAEEPDCIISEAPTSPLGHLTSEYDTDRNSYQDEDTAGGPPRSPGVEWEMPLATDSPTSDPTEVVNGISSQPQVPFHPNLQKSQYYSTVGGSHPHSEQYPDLLPLEARTRDYASLPPKRMYSQLKTLQKPVLPLYRGSSVSASRVVKPRQSSPQLHNLASYTKKHHTSSVYSISERLEMKPGPQAQGLVMEAATHSQGDGSTDLDSKLTQQLIEFEKSLAGPGTEPDKILRHFSIMDFNSEKDIVRGSSKLITEQELPERRKALRPPPPRPCTPVSTSPHLLVDQNLKPAPPLVVRPSRPAPLPPSAQQRTNAVSPKLLSRHRPTCETLEKEGPGHMGRSLDQTSPCPLVLVRIEEMERDLDMYSRAQEELNLMLEEKQDESSRAETLEDLKFCESNIESLNMELQQLREMTLLSSQSSSLVAPSGSVSAENPEQRMLEKRAKVIEELLQTERDYIRDLEMCIERIMVPMQQAQVPNIDFEGLFGNMQMVIKVSKQLLAALEISDAVGPVFLGHRDELEGTYKIYCQNHDEAIALLEIYEKDEKIQKHLQDSLADLKSLYNEWGCTNYINLGSFLIKPVQRVMRYPLLLMELLNSTPESHPDKVPLTNAVLAVKEINVNINEYKRRKDLVLKYRKGDEDSLMEKISKLNIHSIIKKSNRVSSHLKHLTGFAPQIKDEVFEETEKNFRMQERLIKSFIRDLSLYLQHIRESACVKVVAAVSMWDVCMERGHRDLEQFERVHRYISDQLFTNFKERTERLVISPLNQLLSMFTGPHKLVQKRFDKLLDFYNCTERAEKLKDKKTLEELQSARNNYEALNAQLLDELPKFHQYAQGLFTNCVHGYAEAHCDFVHQALEQLKPLLSLLKVAGREGNLIAIFHEEHSRVLQQLQVFTFFPESLPATKKPFERKTIDRQSARKPLLGLPSYMLQSEELRASLLARYPPEKLFQAERNFNAAQDLDVSLLEGDLVGVIKKKDPMGSQNRWLIDNGVTKGFVYSSFLKPYNPRRSHSDASVGSHSSTESEHGSSSPRFPRQNSGSTLTFNPSSMAVSFTSGSCQKQPQDASPPPKECDQGTLSASLNPSNSESSPSRCPSDPDSTSQPRSGDSADVARDVKQPTATPRSYRNFRHPEIVGYSVPGRNGQSQDLVKGCARTAQAPEDRSTEPDGSEAEGNQVYFAVYTFKARNPNELSVSANQKLKILEFKDVTGNTEWWLAEVNGKKGYVPSNYIRKTEYT
B2: Internalin C (Listeria monocytogenes serotype 1/2a), P71451 (parent)
chain: MLKKNNWLQNAVIAMLVLIVGLCINMGSGTKVQAESIQRPTPINQVFPDPGLANAVKQNLGKQSVTDLVSQKELSGVQNFNGDNSNIQSLAGMQFFTNLKELHLSHNQISDLSPLKDLTKLEELSVNRNRLKNLNGIPSACLSRLFLDNNELRDTDSLIHLKNLEILSIRNNKLKSIVMLGFLSKLEVLDLHGNEITNTGGLTRLKKVNWIDLTGQKCVNEPVKYQPELYITNTVKDPDGRWISPYYISNGGSYVDGCVLWELPVYTDEVSYKFSEYINVGETEAIFDGTVTQPIKN

Variants of: B1
Details: with inlc_lismg inlC

Variant | effect of a mutation on the interaction
V1521R | decreasing interaction strength
N1569R | decreasing interaction strength

Variants of: B2
Details: with DNMBP

Variant | effect of a mutation on the interaction
F146A | decreasing interaction strength

Source: IntAct's records for PubMed 24332715
